Experimental data from article PMC6753088, “The cryo-EM structure of the acid activatable pore-forming immune effector Macrophage-expressed gene 1” (Nature Communications, 2019).

Molecular target: the molecule itself
Assay: cryo-EM structure; soluble MPEG1 ectodomain, 2.0-2.5 mg/mL, 20 mM Tris-HCl pH 7.2, 0.3 M NaCl; single particle analysis; two hexadecameric rings stacked head to head (D16, C16 or C1 imposed)

B1: human MPEG1 (Macrophage-expressed gene 1 / Perforin-2) soluble ectodomain, wild type (domain or fragment)
chain: KSGKPSGEMDEVGVQKCKNALKLPVLEVLPGGGWDNLRNVDMGRVMELTYSNCRTTEDGQYIIPDEIFTIPQKQSNLEMNSEILESWANYQSSTSYSINTELSLFSKVNGKFSTEFQRMKTLQVKDQAITTRVQVRNLVYTVKINPTLELSSGFRKELLDISDRLENNQTRMATYLAELLVLNYGTHVTTSVDAGAALIQEDHLRASFLQDSQSSRSAVTASAGLAFQNTVNFKFEENYTSQNVLTKSYLSNRTNSRVQSIGGVPFYPGITLQAWQQGITNHLVAIDRSGLPLHFFINPNMLPDLPGPLVKKVSKTVETAVKRYYTFNTYPGCTDLNSPNFNFQANTDDGSCEGKMTNFSFGGVYQECTQLSGNRDVLLCQKLEQKNPLTGDFSCPSGYSPVHLLSQIHEEGYNHLECHRKCTLLVFCKTVCEDVFQVAKAEFRAFWCVASSQVPENSGLLFGGLFSSKSINPMTNAQSCPAGYFPLRLFENLKVCVSQDYELGSRFAVPFGGFFSCTVGNPLVDPAISRDLGAPSLKKCPGGFSQHPALISDGCQVSYCVKSGLFTGGSLPPARLPPFTRPPLMSQAATNTVIVTNSENARSWIKDSQTHQWRLGEPIELRRAMNVIHGDGGGLS
stoichiometry N: 16

B2: human MPEG1 soluble ectodomain, L425K mutant (domain or fragment)
chain: KSGKPSGEMDEVGVQKCKNALKLPVLEVLPGGGWDNLRNVDMGRVMELTYSNCRTTEDGQYIIPDEIFTIPQKQSNLEMNSEILESWANYQSSTSYSINTELSLFSKVNGKFSTEFQRMKTLQVKDQAITTRVQVRNLVYTVKINPTLELSSGFRKELLDISDRLENNQTRMATYLAELLVLNYGTHVTTSVDAGAALIQEDHLRASFLQDSQSSRSAVTASAGLAFQNTVNFKFEENYTSQNVLTKSYLSNRTNSRVQSIGGVPFYPGITLQAWQQGITNHLVAIDRSGLPLHFFINPNMLPDLPGPLVKKVSKTVETAVKRYYTFNTYPGCTDLNSPNFNFQANTDDGSCEGKMTNFSFGGVYQECTQLSGNRDVLLCQKLEQKNPLTGDFSCPSGYSPVHLLSQIHEEGYNHLECHRKCTLKVFCKTVCEDVFQVAKAEFRAFWCVASSQVPENSGLLFGGLFSSKSINPMTNAQSCPAGYFPLRLFENLKVCVSQDYELGSRFAVPFGGFFSCTVGNPLVDPAISRDLGAPSLKKCPGGFSQHPALISDGCQVSYCVKSGLFTGGSLPPARLPPFTRPPLMSQAATNTVIVTNSENARSWIKDSQTHQWRLGEPIELRRAMNVIHGDGGGLS
modifications: a glycan moiety attached to TMH-2 (residue not given)
stoichiometry N: 16
